The record followed here is the supplement of paper PMC5998384.

In data set [1] the test system is HeLa Kyoto. Kind of data set: melting temperature (median over replicates), in situ; higher = more thermally stable.
Data set [2] relates to HeLa Kyoto. Kind of data set: thermal stability score vs G1/S (z-score of summed log2 fold changes over temperatures); higher = more thermally stable than in G1/S.
The subject of data set [3] is HeLa Kyoto. Kind of data set: solubility in G1/S (NP-40 vs SDS abundance) (log2 ratio); higher = more soluble. To be noted: cell cycle stage: G1/S.
The test system of data set [4] is HeLa Kyoto. Kind of data set: solubility change mitosis vs G1/S (difference of NP-40 vs SDS log2 ratios) (log2 ratio difference); higher = more soluble in mitosis.
Where [5] appears, read: cell cycle stage: early G1 (4.5 h after nocodazole release).
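For melting temperature (median over replicates), in situ in this document: HeLa Kyoto cells synchronized by double thymidine or nocodazole block, proteins quantified by TMT10plex mass spectrometry, three independent biological replicates.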
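For solubility change mitosis vs G1/S (difference of NP-40 vs SDS log2 ratios) in this document: synchronized HeLa Kyoto cells (double thymidine block for G1/S, nocodazole release for mitosis), protein amounts in NP-40 versus SDS lysates quantified by mass spectrometry, three biological replicates.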
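For solubility in G1/S (NP-40 vs SDS abundance) in this document: HeLa Kyoto cells arrested at G1/S by double thymidine block, proteins quantified by TMT10plex mass spectrometry in mild NP-40 versus SDS extracts, three biological replicates.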
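For thermal stability score vs G1/S (z-score of summed log2 fold changes over temperatures) in this document: synchronized HeLa Kyoto cells, proteins quantified by TMT10plex mass spectrometry, three biological replicates, mitosis taken 0.5 h after nocodazole release, G1/S directly after double thymidine block.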

With “MSGYSSDRDRGRDRGFGAPRFGGSRAGPLSGKKFGNPGEKLVKKKWNLDELPKFEKNFYQEHPDLARRTAQEVETYRRSKEITVRGHNCPKPVLNFYEANFPANVMDVIARQNFTEPTAIQAQGWPVALSGLDMVGVAQTGSGKTLSYLLPAIVHINHQPFLERGDGPICLVLAPTRELAQQVQQVAAEYCRACRLKSTCIYGGAPKGPQIRDLERGVEICIATPGRLIDFLECGKTNLRRTTYLVLDEADRMLDMGFEPQIRKIVDQIRPDRQTLMWSATWPKEVRQLAEDFLKDYIHINIGALELSANHNILQIVDVCHDVEKDEKLIRLMEEIMSEKENKTIVFVETKRRCDELTRKMRRDGWPAMGIHGDKSQQERDWVLNEFKHGKAPILIATDVASRGLDVEDVKFVINYDYPNSSEDYIHRIGRTARSTKTGTAYTFFTPNNIKQVSDLISVLREANQAINPKLLQLVEDRGSGRSRGRGGMKDDRRDRYSAGKRGGFNTFRDRENYDRGYSSLLKRDFGAKTQNGVYSAANYTNGSFGSNFVSAGIQTSFRTGNPTGTYQNGYDSTQQYGSNVPNMHNGMNQQAYAYPATAAAPMIGYPMPTGYSQ [DDX5]”, the values for the melting temperature in the data set with HeLa Kyoto [1] (cell cycle stage: G1/S) and in the data set with HeLa Kyoto [1] (cell cycle stage: mitosis) were 47.2 °C and 48.4 °C, respectively. The thermal stability score in the data set with HeLa Kyoto [2] (setting [5]) was 3.64; with HeLa Kyoto [2] (cell cycle stage: mitosis), 11.3. Further, in the data set with HeLa Kyoto [3], the “solubility in G1/S (log2)” value was -0.551. Moreover, the “solubility change mitosis (log2)” value with HeLa Kyoto [4] worked out at 0.397.

For the sequence “MSHPSWLPPKSTGEPLGHVPARMETTHSFGNPSISVSTQQPPKKFAPVVAPKPKYNPYKQPGGEGDFLPPPPPPLDDSSALPSISGNFPPPPPLDEEAFKVQGNPGGKTLEERRSSLDAEIDSLTSILADLECSSPYKPRPPQSSTGSTASPPVSTPVTGHKRMVIPNQPPLTATKKSTLKPQPAPQAGPIPVAPIGTLKPQPQPVPASYTTASTSSRPTFNVQVKSAQPSPHYMAAPSSGQIYGSGPQGYNTQPVPVSGQCPPPSTRGGMDYAYIPPPGLQPEPGYGYAPNQGRYYEGYYAAGPGYGGRNDSDPTYGQQGHPNTWKREPGYTPPGAGNQNPPGMYPVTGPKKTYITDPVSAPCAPPLQPKGGHSGQLGPSSVAPSFRPEDELEHLTKKMLYDMENPPADEYFGRCARCGENVVGEGTGCTAMDQVFHVDCFTCIICNNKLRGQPFYAVEKKAYCEPCYINTLEQCNVCSKPIMERILRATGKAYHPHCFTCVMCHRSLDGIPFTVDAGGLIHCIEDFHKKFAPRCSVCKEPIMPAPGQEETVRIVALDRDFHVHCYRCEDCGGLLSEGDNQGCYPLDGHILCKTCNSARIRVLTAKASTDL”, the melting temperature in the data set on HeLa Kyoto [1] (cell cycle stage: G1/S) came out at 55.6 °C; in the data set on HeLa Kyoto [1] (cell cycle stage: mitosis), 54.4 °C. For the same sequence, the thermal stability score in the data set on HeLa Kyoto [2] (setting [5]) is -2.33; with HeLa Kyoto [2] (cell cycle stage: mitosis) it was -1.52. The “solubility in G1/S (log2)” value in the data set with HeLa Kyoto [3] was determined as 0.203. Also, the “solubility change mitosis (log2)” value in the data set on HeLa Kyoto [4] was -0.115.

Turning to “MSHTEVKLKIPFGNKLLDAVCLVPNKSLTYGIILTHGASGDMNLPHLMSLASHLASHGFFCLRFTCKGLNIVHRIKAYKSVLNYLKTSGEYKLAGVFLGGRSMGSRAAASVMCHIEPDDGDDFVRGLICISYPLHHPKQQHKLRDEDLFRLKEPVLFVSGSADEMCEKNLLEKVAQKMQAPHKIHWIEKANHSMAVKGRSTNDVFKEINTQILFWIQEITEMDKKCH [TEX30]”, the melting temperature in the data set with HeLa Kyoto [1] (cell cycle stage: G1/S) turned out to be 48.7 °C; in the data set on HeLa Kyoto [1] (cell cycle stage: mitosis), 49 °C. For the same sequence, the figures for the thermal stability score with HeLa Kyoto [2] (setting [5]) and in the data set on HeLa Kyoto [2] (cell cycle stage: mitosis) were 0.36 and 0.539, respectively. Besides, the “solubility in G1/S (log2)” value in the data set on HeLa Kyoto [3] is 0.199. Moreover, the “solubility change mitosis (log2)” value with HeLa Kyoto [4] was -0.146.

Take “MSKGTSSDTSLGRVSRAAFPSPTAAEMAEISRIQYEMEYTEGISQRMRVPEKLKVAPPNADLEQGFQEGVPNASVIMQVPERIVVAGNNEDVSFSRPADLDLIQSTPFKPLALKTPPRVLTLSERPLDFLDLERPPTTPQNEEIRAVGRLKRERSMSENAVRQNGQLVRNDSLWHRSDSAPRNKISRFQAPISAPEYTVTPSPQQARVCPPHMLPEDGANLSSARGILSLIQSSTRRAYQQILDVLDENRRPVLRGGSAAATSNPHHDNVRYGISNIDTTIEGTSDDLTVVDAASLRRQIIKLNRRLQLLEEENKERAKREMVMYSITVAFWLLNSWLWFRR [MFF]”: the melting temperature in the data set with HeLa Kyoto [1] (cell cycle stage: G1/S) is 51.6 °C; with HeLa Kyoto [1] (cell cycle stage: mitosis), 52.6 °C. For the same sequence, the thermal stability score in the data set with HeLa Kyoto [2] (setting [5]) amounted to 0.544; with HeLa Kyoto [2] (cell cycle stage: mitosis) it was 1.39. In addition, the “solubility in G1/S (log2)” value with HeLa Kyoto [3] stood at 0.532. In the data set with HeLa Kyoto [4], the “solubility change mitosis (log2)” value is -0.00278.

With “MSKLKSSESVRVVVRCRPMNGKEKAASYDKVVDVDVKLGQVSVKNPKGTAHEMPKTFTFDAVYDWNAKQFELYDETFRPLVDSVLQGFNGTIFAYGQTGTGKTYTMEGIRGDPEKRGVIPNSFDHIFTHISRSQNQQYLVRASYLEIYQEEIRDLLSKDQTKRLELKERPDTGVYVKDLSSFVTKSVKEIEHVMNVGNQNRSVGATNMNEHSSRSHAIFVITIECSEVGLDGENHIRVGKLNLVDLAGSERQAKTGAQGERLKEATKINLSLSALGNVISALVDGKSTHIPYRDSKLTRLLQDSLGGNAKTVMVANVGPASYNVEETLTTLRYANRAKNIKNKPRVNEDPKDALLREFQEEIARLKAQLEKRSIGRRKRREKRREGGGSGGGGEEEEEEGEEGEEEGDDKDDYWREQQEKLEIEKRAIVEDHSLVAEEKMRLLKEKEKKMEDLRREKDAAEMLGAKIKAMESKLLVGGKNIVDHTNEQQKILEQKRQEIAEQKRREREIQQQMESRDEETLELKETYSSLQQEVDIKTKKLKKLFSKLQAVKAEIHDLQEEHIKERQELEQTQNELTRELKLKHLIIENFIPLEEKSKIMNRAFFDEEEDHWKLHPITRLENQQMMKRPVSAVGYKRPLSQHARMSMMIRPEARYRAENIVLLELDMPSRTTRDYEGPAIAPKVQAALDAALQDEDEIQVDASSFESTANKKSKARPKSGRKSGSSSSSSGTPASQLYPQSRGLVPK [KIF3B]”, the melting temperature in the data set with HeLa Kyoto [1] (cell cycle stage: G1/S) and in the data set on HeLa Kyoto [1] (cell cycle stage: mitosis) was 50.3 °C each time. The thermal stability score in the data set with HeLa Kyoto [2] (setting [5]) stood at 0.792; in the data set with HeLa Kyoto [2] (cell cycle stage: mitosis), 0.328. The “solubility in G1/S (log2)” value with HeLa Kyoto [3] turned out to be 0.0133. Also, the “solubility change mitosis (log2)” value in the data set with HeLa Kyoto [4] is -0.0759.

“MSKPELKEDKMLEVHFVGDDDVLNHILDREGGAKLKKERAQLLVNPKKIIKKPEYDLEEDDQEVLKDQNYVEIMGRDVQESLKNGSATGGGNKVYSFQNRKHSEKMAKLASELAKTPQKSVSFSLKNDPEITINVPQSSKGHSASDKVQPKNNDKSEFLSTAPRSLRKRLIVPRSHSDSESEYSASNSEDDEGVAQEHEEDTNAVIFSQKIQAQNRVVSAPVGKETPSKRMKRDKTSDLVEEYFEAHSSSKVLTSDRTLQKLKRAKLDQQTLRNLLSKVSPSFSAELKQLNQQYEKLFHKWMLQLHLGFNIVLYGLGSKRDLLERFRTTMLQDSIHVVINGFFPGISVKSVLNSITEEVLDHMGTFRSILDQLDWIVNKFKEDSSLELFLLIHNLDSQMLRGEKSQQIIGQLSSLHNIYLIASIDHLNAPLMWDHAKQSLFNWLWYETTTYSPYTEETSYENSLLVKQSGSLPLSSLTHVLRSLTPNARGIFRLLIKYQLDNQDNPSYIGLSFQDFYQQCREAFLVNSDLTLRAQLTEFRDHKLIRTKKGTDGVEYLLIPVDNGTLTDFLEKEEEEA [ORC2]”: the melting temperature turned out to be 48.1 °C in the data set with HeLa Kyoto [1] (cell cycle stage: G1/S) and 49.2 °C in the data set on HeLa Kyoto [1] (cell cycle stage: mitosis). Besides, the thermal stability score with HeLa Kyoto [2] (setting [5]) is 1.23; in the data set on HeLa Kyoto [2] (cell cycle stage: mitosis) it was 1.67. In addition, the “solubility in G1/S (log2)” value in the data set on HeLa Kyoto [3] amounted to 0.117. Further, in the data set with HeLa Kyoto [4], the “solubility change mitosis (log2)” value was found to be 0.06.
